Reference: patent US6534051

Legend:
[1] = biological target: cell-surface protein expressed on various human cancers (e.g., HeLa and Col-1 cells), antigen of antibody B6.2 (human); assay: cell-based or functional assay
[2] = biological target: receptor of ecotropic murine leukemia virus (UniProt Q09143); assay: cell-based or functional assay
UniProt Q09143, sequence (Q09143 whole entry): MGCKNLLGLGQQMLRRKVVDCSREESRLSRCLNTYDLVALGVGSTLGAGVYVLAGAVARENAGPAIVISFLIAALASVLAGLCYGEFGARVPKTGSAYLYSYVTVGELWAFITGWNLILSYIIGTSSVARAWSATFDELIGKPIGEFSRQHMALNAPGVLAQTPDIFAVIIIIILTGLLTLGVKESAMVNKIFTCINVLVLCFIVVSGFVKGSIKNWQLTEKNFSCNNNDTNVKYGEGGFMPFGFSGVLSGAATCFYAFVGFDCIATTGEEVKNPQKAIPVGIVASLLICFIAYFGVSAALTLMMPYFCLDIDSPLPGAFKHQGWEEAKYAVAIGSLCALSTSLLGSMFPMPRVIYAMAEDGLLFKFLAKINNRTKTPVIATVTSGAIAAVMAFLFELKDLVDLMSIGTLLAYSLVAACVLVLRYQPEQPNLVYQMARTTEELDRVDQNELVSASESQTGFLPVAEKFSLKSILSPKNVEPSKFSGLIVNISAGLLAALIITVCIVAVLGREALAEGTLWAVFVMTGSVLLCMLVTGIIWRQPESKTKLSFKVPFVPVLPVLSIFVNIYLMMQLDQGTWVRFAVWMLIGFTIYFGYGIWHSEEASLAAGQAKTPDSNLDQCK

Which results are given for “TC26 targeting envelope: B6.2 single chain antibody fused to the SNV envelope at codon 168 (167 in the legend of FIG. 6) (scFv)”?
Titer (CFU/ml) on COL-1, particles with TC26 + wt-env [1]: 45 CFU/ml; Titer (CFU/ml) on HeLa, particles with TC26 + wt-env [1]: 90 CFU/ml; Titer (CFU/ml) on HeLa, particles with TC26 alone [1]: 10 CFU/ml

How did the Titer (CFU/ml) on COL-1, particles with TC25 + wt-env [1] turn out when “TC25 targeting envelope: B6.2 single chain antibody fused to carboxy terminal part of the SNV envelope (same amount of SNV envelope as pTC5) (scFv)” was run?
Its Titer (CFU/ml) on COL-1, particles with TC25 + wt-env is 55 CFU/ml.

What about the Titer (CFU/ml) on HeLa, particles with TC25 + wt-env [1] of the same substance?
Its Titer (CFU/ml) on HeLa, particles with TC25 + wt-env is 100 CFU/ml.

What about the Titer (CFU/ml) on HeLa, particles with TC25 alone [1] of the same substance?
Its Titer (CFU/ml) on HeLa, particles with TC25 alone is 20 CFU/ml.

For “SNV-MLV-chiD targeting envelope: almost complete SU peptide of ecotropic murine leukemia virus fused to carboxy terminal part of the SNV envelope (as in pTC5)”, which Virus titer (cfu/ml) on CHTG cells, particles with MLV-SNV-chiD + wt SNV [2] is on record?
Its Virus titer (cfu/ml) on CHTG cells, particles with MLV-SNV-chiD + wt SNV is 1000 cfu/ml.

“SNV-MLV-chiC targeting envelope: almost complete SU peptide of ecotropic murine leukemia virus fused to carboxy terminal part of the SNV envelope (as in pTC4)” was tested. Which Virus titer (cfu/ml) on CHTG cells, particles with MLV-SNV-chiC + wt SNV [2] did it give?
Its Virus titer (cfu/ml) on CHTG cells, particles with MLV-SNV-chiC + wt SNV is 1000 cfu/ml.

Which Titer (CFU/ml) on COL-1, particles with TC24 + wt-env [1] does the source give for “TC24 targeting envelope: B6.2 single chain antibody fused to carboxy terminal part of the SNV envelope (same amount of SNV envelope as pTC4) (scFv)” here?
The Titer (CFU/ml) on COL-1, particles with TC24 + wt-env was 115 CFU/ml.

What about the Titer (CFU/ml) on HeLa, particles with TC24 + wt-env [1] of the same substance?
Its Titer (CFU/ml) on HeLa, particles with TC24 + wt-env is 250 CFU/ml.

What about the Titer (CFU/ml) on HeLa, particles with TC24 alone [1] of the same substance?
The Titer (CFU/ml) on HeLa, particles with TC24 alone was 5 CFU/ml.
